This is an account of results in article PMC8048964 (Angewandte Chemie (International Ed. in English), 2021).

For series [1], the system named is HeLa cells. Kind of series: Live-cell delivery to HeLa cells, CLSM and FiJi image analysis. Format: cell-based. The following applies: CLSM.
In series [2] the test system is U2OS cells. Kind of series: Live-cell delivery to U2OS cells, confocal laser scanning microscopy. Format: cell-based.

With TAMRA‐Cys(cR10)‐Ub [compound 7], the “endosomal or lysosomal entrapment / cytosolic availability of protein” value in series [1] was “cytosolic availability of protein was not improved”.
With TAMRA-SUMO2-cR10D [compound 15], in series [2] (4 μM in PBS, 37 °C, 45 min, CLSM), the “signals in lysosomes or endosomes (punctuates) compared to analogue 14” value was “significantly fewer signals”.
Consider TAMRA-Ub(S20C(cR10D))-PA [compound 11], for which the “live-cell delivery (TAMRA signal, CLSM)” value in series [2] (2 μM in PBS, two independent sets of experiments (Figure S23)) was “significantly good”.
